Measured values reported in US10704030B2, “P450-BM3 variants with improved activity” (Codexis, Inc., priority 2015, dated 2020).

Experiments:
Type in all cases: biochemical
[1] = Validation of generalist properties: oxidation of imatinib by lyophilized P450-BM3 variant, UPLC-MS; conditions: for % Conv. / TON: [Imatinib] = 1 mM; for TON: TON = [substrate]*% conversion/[P450]
Description: (§1) For the production of lyophilized protein powders, LB agar plates supplemented with chloramphenicol (30 μg/mL) were streaked with E. coli containing a desired B. megaterium P450-BM3 variant in an IPTG-inducible vector. The plates were grown at 37° C. for 16 hrs before single clones were selected to inoculate a 15 mL Falcon™ tube (Fisher) containing TB media (3 mL) supplemented with chloramphenicol (30 μg/mL). The tube was shaken at 200 rpm, 30° C., and 85% humidity for 20-24 h to grow the cultures to saturation. Then, 2.5 mL of the overnight culture was used to inoculate sterile 1 L flasks containing TB medium (250 mL) supplemented with chloramphenicol (30 μg/mL), trace element solution (as described above), and 0.05 g/L ammonium iron (III) citrate. After being shaken at 250 rpm, 30° C., and 85% humidity to an OD600 of 0.8-1.2, P450 expression was induced by addition of IPTG (500 uM) and the heme precursor 5-aminolevulinic acid (5-ALA) to a final concentration of 500 uM. The cultures were grown for additional 20-24 hours and centrifuged in pre-weighed 250 mL centrifuge bottles for 20 minutes at 4000 rpm, 4° C. The supernatants were discarded, and the centrifuge bottles containing cell pellets were weighed. The pellets were resuspended in 50 mM potassium phosphate buffer with 2 mM DTT, pH 8.0 (5 mL of buffer per gram of cell pellet). The cells were lysed using a microfluidizer homogenizer, and the suspensions of cells and lysate were collected in sterile 50 mL centrifuge tubes. The samples were centrifuged for 30 minutes at 10,000 rpm, 4° C. The clarified lysate was collected into a plastic petri plate and frozen at −80° C. prior to lyophilization. The enzyme-containing lysates were lyophilized using standard methods known in the art.
(§2) Enzyme stocks (˜12 μM) were prepared by dissolving ˜20 mg of each enzyme in 100 mM potassium phosphate buffer, pH 8.0 (1 mL). The concentration of each enzyme stock solution was determined by the UV-visible absorption spectroscopy (after centrifugation to remove particulates) and diluted to standardize at 12 μM heme protein. Substrate solutions were prepared by dissolving each substrate in DMSO to reach a final concentration of 20 mM or 40 mM. Reaction mix (235 μL) followed by enzyme solution (50 μL) was added to the plates. The substrate stock solution was added to the enzyme solutions (15 μL at the two different concentrations). Each reaction contained 100 mM potassium phosphate, 1.0 mM NADP+, 25 mM glucose, 0.5 mg/mL glucose dehydrogenase, 5% DMSO and substrate at 1 or 2 mM. Loratadine, imatinib, and gefitinib (See, FIG. 1) were selected as substrates in addition to diclofenac to validate improved BM3 variants. The reactions were shaken at 450 rpm at 30° C. over 24 hours. All reactions were diluted with acetonitrile to a final concentration of 0.5 mM substrate. The plates were then centrifuged at 3,000 g for 1 hour at 20° C. The supernatant was diluted 1:1 with acetonitrile, filtered using a 0.4 micron filter, and analyzed by UPLC-MS.
(§3) For UPLC-MS analysis, the quenched and filtered reactions were transferred to 96-well HTP plates for analysis by UPLC on a Waters Acquity H-class system equipped with an autosampler. 1 uL of quenched sample was injected onto an Acquity UPLC HSS T3 column, 100 Å, (1.8 um; 2.1×100 mm). The column was eluted at a constant flow rate of 0.6 mL/min; conditions with solvent A (0.05% trifluoroacetic acid v/v, in H2O) and solvent B (0.05% trifluoroacetic acid v/v, in acetonitrile) used to elute the products of the reaction were: 0-2 min, A/B 95:5; 2-2.9 min, A/B 5:95; 2.9-3 min, A/B 95:5; 3-3.5 min, A/B 95:5. Column eluent was monitored by PDA (200-600 nm) prior to MS analysis in positive ESI mode (desolvation temperature 350° C., 3.25 kV spray voltage, cone voltage 25V). The column eluent was diverted to waste for the first 0.7 minutes of the run. For the remainder of the LC run, both MS (m/z 95-600 scan range) and MS/MS were collected. […]

[2] = Validation of generalist properties: oxidation of loratadine by lyophilized P450-BM3 variant, UPLC-MS; conditions: for % Conv. / TON: [Loratadine] = 1 mM; for TON: TON = [substrate]*% conversion/[P450]
Description: as §1, §2, §3

[3] = Validation of generalist properties: oxidation of gefitinib by lyophilized P450-BM3 variant, UPLC-MS; conditions: for % Conv. / TON: [Gefitinib] = 1 mM; for TON: TON = [substrate]*% conversion/[P450]
Description: as §1, §2, §3

[4] = Validation of generalist properties: oxidation of diclofenac by lyophilized P450-BM3 variant, UPLC-MS; conditions: for % Conv. / TON: [Diclofenac] = 1 mM; for TON: TON = [substrate]*% conversion/[P450]
Description: as §1, §2, §3

Molecule | % Conv. [1] | TON [1] | performance (% conversion at 1 mM substrate loading), in words ([1]; imatinib, 1 mM substrate loading) | % Conv. [2] | TON [2] | performance (% conversion at 1 mM substrate loading), in words ([2]; loratadine, 1 mM substrate loading) | % Conv. [3] | TON [3] | performance (% conversion at 1 mM substrate loading), in words ([3]; gefitinib, 1 mM substrate loading) | % Conv. [4] | TON [4] | performance (% conversion at 1 mM substrate loading), in words ([4]; diclofenac, 1 mM substrate loading)
SEQ ID NO: 4: P450-BM3 parental backbone from the commercially available MCYP panel (MCYP-0343; Codexis) (protein, P450_BM3) MTIKEMPQPKTFGELKNLPLLNTDKPVQALMKIADELGEIFKFEAPGCVTRYLSSQRLIKEACDESRFDKNLSQALKFARDFAGDGLVTSWTHEINWKKAHNILLPSFSQQAMKGYHAMMVDIAVQLVQKWERLNADEHIEVSEDMTRLTLDTIGLCGFNYRFNSFYRDQPHPFIISMVRALDEVMNKLQRANPDDPAYDENKRQCQEDIKVMNDLVDKIIADRKARGEQSDDLLTQMLNGKDPETGEPLDDGNISYQIITFLIAGHETTSGLLSFALYFLVKNPHVLQKVAEEAARVLVDPVPSYKQVKQLKYVGMVLNEALRLWPTAPAFSLYAKEDTVLGGEYPLEKGDEVMVLIPQLHRDKTIWGDDVEEFRPERFENPSAIPQHAFKPFGNGQRACIGQQFALHEATLVLGMMLKHFDFEDHTNYELDIKETLTLKPEGFVVKAKSKKIPLGGIPSPSTEQSAKKVRKKAENAHNTPLLVLYGSNMGTAEGTARDLADIAMSKGFAPQVATLDSHAGNLPREGAVLIVTASYNGHPPDNAKQFVDWLDQASADEVKGVRYSVFGCGDKNWATTYQKVPAFIDETLAAKGAENIADRGEADASDDFEGTYEEWREHMWSDVAAYFNLDIENSEDNKSTLSLQFVDSAADMPLAKMHGAFSTNVVASKELQQPGSARSTRHLEIELPKEASYQEGDHLGVIPRNYEGIVNRVTARFGLDASQQIRLEAEEEKLAHLPLAKTVSVEELLQYVELQDPVTRTQLRAMAAKTVCPPHKVELEALLEKQAYKEQVLAKRLTMLELLEKYPACEMKFSEFIALLPSIRPRYYSISSSPRVDEKQASITVSVVSGEAWSGYGEYKGIASNYLAELQEGDTITCFISTPQSEFTLPKDPETPLIMVGPGTGVAPFRGFVQARKQLKEQGQSLGEAHLYFGCRSPHEDYLYQEELENAQSEGIITLHTAFSRMPNQPKTYVQHVMEQDGKKLIELLDQGAHFYICGDGSQMAPAVEATLMKSYADVHQVSEADARLWLQQLEEKGRYAKDVWAG | ++ (5.01-10.00) | ‡‡ (1001-5000) | low activity | ++++ (15.01-20.00) | ‡‡‡‡ (10000-50000) | moderate activity | + (0-5.00) | ‡ (0-1000) | low activity | +++ (10.01-15.00) | ‡‡‡ (5001-10000) | moderate activity
SEQ ID NO: 2: P450-BM3 parental backbone from the commercially available MCYP panel; a chimera, P450 domain 86% identical to Bacillus subtilis P450 (protein, P450_BM3, P450-BM3 parental backbone from the commercially available MCYP panel; a chimera, P450 domain 86% identical to Bacillus subtilis P450) MLMKQASAIPQPKTYGPLKNLPHLEKEQLSQSLWRIADELGPIFRFDFPGVSSVFVSGHNLVAEVCDEERFDKSIEGALEKVRAFSGDGLATSWTHEPNWRKAHNILMPTFSQRAMKDYHEKMVDIATQLIQKWSRLNPNEEIDVADDMTRLTLDTIGLCGFNYRFNSFYRDQPHPFITSMVRALDEAMNKLQRANPDDPAYDENKRQFQEDIKVMNDLVDSIIAERRANGDQDEKDLLARMLNVEDPETGEKLDDENIRFQIITFLIAGHETTSGLLSFAIYCLLTHPEKLKKAQEEADRVLTDDTPEYKQIQQLKYIRMVLNETLRLYPTAPAFSLYAKEDTVLGGEYPISKGQPVTVLIPKLHRDQNAWGPDAEDFRPERFEDPSSIPHHAYKPFGNGQRACIGMQFALQEATMVLGLVLKHFELINHTGYELKIKEALTIKPDDFKITVKPRKTAAINVQRKEQAEQSAKKVRKKAENAHNTPLLVLYGSNMGTAEGTARDLADIAMSKGFAPQVATLDSHAGNLPREGAVLIVTASYNGHPPDNAKQFVDWLDQASADEVKGVRYSVFGCGDKNWATTYQKVPAFIDETLAAKGAENIADRGEADASDDFEGTYEEWREHMWSDVAAYFNLDIENSEDNKSTLSLQFVDSAADMPLAKMHGAFSTNVVASKELQQPGSARSTRHLEIELPKEASYQEGDHLGVIPRNYEGIVNRVTARFGLDASQQIRLEAEEEKLAHLPLAKTVSVEELLQYVELQDPVTRTQLRAMAAKTVCPPHKVELEALLEKQAYKEQVLAKRLTMLELLEKYPACEMKFSEFIALLPSIRPRYYSISSSPRVDEKQASITVSVVSGEAWSGYGEYKGIASNYLAELQEGDTITCFISTPQSEFTLPKDPETPLIMVGPGTGVAPFRGFVQARKQLKEQGQSLGEAHLYFGCRSPHEDYLYQEELENAQSEGIITLHTAFSRMPNQPKTYVQHVMEQDGKKLIELLDQGAHFYICGDGSQMAPAVEATLMKSYADVHQVSEADARLWLQQLEEKGRYAKDVWAG | ++ (5.01-10.00) | ‡‡ (1001-5000) |  | + (0-5.00) | ‡ (0-1000) |  | + (0-5.00) | ‡ (0-1000) |  | + (0-5.00) | ‡ (0-1000) | 
